From the Human Domainome abundance scans (Beltran et al. 2025) come the findings set out here.

± gives the uncertainty stated by the source.

B1: E3 ubiquitin-protein ligase NEDD4, residues 836 to 881; numbered along this chain, P46934 (parent)
chain: EIEQGFLPKGWEVRHAPNGRPFFIDHNTKTTTWEDPRLKIPAHLRG
B2: POU domain, class 2, transcription factor 1, residues 285 to 354; numbered along this chain, P14859 (parent)
chain: LEELEQFAKTFKQRRIKLGFTQGDVGLAMGKLYGNDFSQTTISRFEALNLSFKNMCKLKPLLEKWLNDAE

Variants of B1 are the subject of the first series. The series is described as follows: abundance fitness (aPCA) (normalised: wild type 0, dead -1); higher = more abundant; growth selection in yeast, the domain comes from the species named. To be noted: Homo sapiens.
Turning to H43N, the abundance fitness is -0.084 ± 0.063.
Regarding H43E, the abundance fitness was 0.105 ± 0.058.
In the case of H43G, the abundance fitness was -0.078 ± 0.046.
H43A: the abundance fitness is -0.105 ± 0.054.
For H43V, the abundance fitness was -0.052 ± 0.047.
On the same count and under the same terms, the result for H43P reads 0.094 ± 0.064.
Regarding H43C, the abundance fitness is -0.22 ± 0.053.
With H43Y, the abundance fitness is -0.041 ± 0.1.
As to H43F, the abundance fitness was -0.232 ± 0.055.
Still for that read-out and setting: then H43T, with 0.059 ± 0.059; and H43L, with -0.107 ± 0.038; and H43Q, with 0.007 ± 0.048.
Consider H43W, for which the abundance fitness is -0.311 ± 0.075.
Consider H43M, for which the abundance fitness was -0.251 ± 0.059.
In the case of H43K, the abundance fitness was -0.04 ± 0.054.
Turning to H43R, the abundance fitness is -0.195 ± 0.037.
For the variant H43I, the abundance fitness was -0.156 ± 0.04.
For H43D, the abundance fitness is -0.177 ± 0.087.
For H43S, the abundance fitness stood at 0.019 ± 0.032.
For A42L, the abundance fitness was -0.147 ± 0.042.
Turning to A42T, the abundance fitness was -0.22 ± 0.08.
Turning to A42P, the abundance fitness was -0.075 ± 0.074.
As to A42D, the abundance fitness was -0.111 ± 0.04.
On to A42Y, for which the abundance fitness is -0.252 ± 0.085.
On the same count and under the same terms, then A42Q, with 0.02 ± 0.046; and A42G, with -0.013 ± 0.04; and A42W, with -0.316 ± 0.13.
For the variant A42E, the abundance fitness turned out to be 0.027 ± 0.058.
Turning to A42N, the abundance fitness was -0.015 ± 0.043.
In the case of A42K, the abundance fitness was -0.092 ± 0.052.
For A42H, the abundance fitness was -0.086 ± 0.11.
For A42I, the abundance fitness was -0.398 ± 0.1.
For A42M, the abundance fitness was -0.181 ± 0.096.
As for A42S, the abundance fitness is -0.092 ± 0.057.
On to A42R, for which the abundance fitness is -0.273 ± 0.074.
For A42V, the abundance fitness was -0.128 ± 0.035.
On to A42C, for which the abundance fitness was -0.135 ± 0.047.
Still for that read-out and setting: then A42F, with -0.223 ± 0.11.

The variants in the next series derive from B2. The description is as above. To be noted: Homo sapiens.
As to LEILEQFAKTFKQRRIKLGFTQGDVGLAMGKLYGNDFSQTTISRFEALNLSFKNMCKLKPLLEKWLNDAE [E3I], the abundance fitness is -0.117 ± 0.063.
For the variant LEVLEQFAKTFKQRRIKLGFTQGDVGLAMGKLYGNDFSQTTISRFEALNLSFKNMCKLKPLLEKWLNDAE [E3V], the abundance fitness is -0.118 ± 0.033.
Same read-out and setting: the result for LENLEQFAKTFKQRRIKLGFTQGDVGLAMGKLYGNDFSQTTISRFEALNLSFKNMCKLKPLLEKWLNDAE [E3N] reads -0.07 ± 0.078; that for LERLEQFAKTFKQRRIKLGFTQGDVGLAMGKLYGNDFSQTTISRFEALNLSFKNMCKLKPLLEKWLNDAE [E3R], -0.207 ± 0.036; that for LEPLEQFAKTFKQRRIKLGFTQGDVGLAMGKLYGNDFSQTTISRFEALNLSFKNMCKLKPLLEKWLNDAE [E3P], -0.569 ± 0.043.
Regarding LEFLEQFAKTFKQRRIKLGFTQGDVGLAMGKLYGNDFSQTTISRFEALNLSFKNMCKLKPLLEKWLNDAE [E3F], the abundance fitness is -0.159 ± 0.039.
For LEMLEQFAKTFKQRRIKLGFTQGDVGLAMGKLYGNDFSQTTISRFEALNLSFKNMCKLKPLLEKWLNDAE [E3M], the abundance fitness is -0.089 ± 0.027.
Consider LECLEQFAKTFKQRRIKLGFTQGDVGLAMGKLYGNDFSQTTISRFEALNLSFKNMCKLKPLLEKWLNDAE [E3C], for which the abundance fitness was -0.202 ± 0.046.
With LEKLEQFAKTFKQRRIKLGFTQGDVGLAMGKLYGNDFSQTTISRFEALNLSFKNMCKLKPLLEKWLNDAE [E3K], the abundance fitness was -0.137 ± 0.035.
For the variant LETLEQFAKTFKQRRIKLGFTQGDVGLAMGKLYGNDFSQTTISRFEALNLSFKNMCKLKPLLEKWLNDAE [E3T], the abundance fitness was -0.146 ± 0.031.
Take LEYLEQFAKTFKQRRIKLGFTQGDVGLAMGKLYGNDFSQTTISRFEALNLSFKNMCKLKPLLEKWLNDAE [E3Y]: the abundance fitness was -0.186 ± 0.047.
Regarding LEGLEQFAKTFKQRRIKLGFTQGDVGLAMGKLYGNDFSQTTISRFEALNLSFKNMCKLKPLLEKWLNDAE [E3G], the abundance fitness was -0.201 ± 0.063.
As to LEWLEQFAKTFKQRRIKLGFTQGDVGLAMGKLYGNDFSQTTISRFEALNLSFKNMCKLKPLLEKWLNDAE [E3W], the abundance fitness is -0.305 ± 0.042.
Consider LEHLEQFAKTFKQRRIKLGFTQGDVGLAMGKLYGNDFSQTTISRFEALNLSFKNMCKLKPLLEKWLNDAE [E3H], for which the abundance fitness is -0.036 ± 0.044.
Take LEQLEQFAKTFKQRRIKLGFTQGDVGLAMGKLYGNDFSQTTISRFEALNLSFKNMCKLKPLLEKWLNDAE [E3Q]: the abundance fitness is -0.078 ± 0.034.
Take LEALEQFAKTFKQRRIKLGFTQGDVGLAMGKLYGNDFSQTTISRFEALNLSFKNMCKLKPLLEKWLNDAE [E3A]: the abundance fitness was -0.143 ± 0.05.
Consider LESLEQFAKTFKQRRIKLGFTQGDVGLAMGKLYGNDFSQTTISRFEALNLSFKNMCKLKPLLEKWLNDAE [E3S], for which the abundance fitness is -0.105 ± 0.024.
For the variant LRELEQFAKTFKQRRIKLGFTQGDVGLAMGKLYGNDFSQTTISRFEALNLSFKNMCKLKPLLEKWLNDAE [E2R], the abundance fitness was -0.013 ± 0.03.
For LTELEQFAKTFKQRRIKLGFTQGDVGLAMGKLYGNDFSQTTISRFEALNLSFKNMCKLKPLLEKWLNDAE [E2T], the abundance fitness is -0.158 ± 0.032.
On to LGELEQFAKTFKQRRIKLGFTQGDVGLAMGKLYGNDFSQTTISRFEALNLSFKNMCKLKPLLEKWLNDAE [E2G], for which the abundance fitness is -0.303 ± 0.1.
On to LIELEQFAKTFKQRRIKLGFTQGDVGLAMGKLYGNDFSQTTISRFEALNLSFKNMCKLKPLLEKWLNDAE [E2I], for which the abundance fitness was -0.029 ± 0.06.
Regarding LYELEQFAKTFKQRRIKLGFTQGDVGLAMGKLYGNDFSQTTISRFEALNLSFKNMCKLKPLLEKWLNDAE [E2Y], the abundance fitness was -0.046 ± 0.057.
On to LDELEQFAKTFKQRRIKLGFTQGDVGLAMGKLYGNDFSQTTISRFEALNLSFKNMCKLKPLLEKWLNDAE [E2D], for which the abundance fitness was -0.013 ± 0.17.
Take LFELEQFAKTFKQRRIKLGFTQGDVGLAMGKLYGNDFSQTTISRFEALNLSFKNMCKLKPLLEKWLNDAE [E2F]: the abundance fitness was -0.009 ± 0.036.
With LWELEQFAKTFKQRRIKLGFTQGDVGLAMGKLYGNDFSQTTISRFEALNLSFKNMCKLKPLLEKWLNDAE [E2W], the abundance fitness was -0.043 ± 0.029.
For the variant LMELEQFAKTFKQRRIKLGFTQGDVGLAMGKLYGNDFSQTTISRFEALNLSFKNMCKLKPLLEKWLNDAE [E2M], the abundance fitness is -0.012 ± 0.026.
Same read-out and setting: the result for LVELEQFAKTFKQRRIKLGFTQGDVGLAMGKLYGNDFSQTTISRFEALNLSFKNMCKLKPLLEKWLNDAE [E2V] reads -0.067 ± 0.045.
In the case of LPELEQFAKTFKQRRIKLGFTQGDVGLAMGKLYGNDFSQTTISRFEALNLSFKNMCKLKPLLEKWLNDAE [E2P], the abundance fitness is -0.178 ± 0.039.
As to LCELEQFAKTFKQRRIKLGFTQGDVGLAMGKLYGNDFSQTTISRFEALNLSFKNMCKLKPLLEKWLNDAE [E2C], the abundance fitness is -0.152 ± 0.051.
As for LHELEQFAKTFKQRRIKLGFTQGDVGLAMGKLYGNDFSQTTISRFEALNLSFKNMCKLKPLLEKWLNDAE [E2H], the abundance fitness is -0.175 ± 0.057.
Turning to LNELEQFAKTFKQRRIKLGFTQGDVGLAMGKLYGNDFSQTTISRFEALNLSFKNMCKLKPLLEKWLNDAE [E2N], the abundance fitness was 0.109 ± 0.072.
As to LQELEQFAKTFKQRRIKLGFTQGDVGLAMGKLYGNDFSQTTISRFEALNLSFKNMCKLKPLLEKWLNDAE [E2Q], the abundance fitness is -0.043 ± 0.037.
Regarding LKELEQFAKTFKQRRIKLGFTQGDVGLAMGKLYGNDFSQTTISRFEALNLSFKNMCKLKPLLEKWLNDAE [E2K], the abundance fitness came out at 0.053 ± 0.037.
Take LSELEQFAKTFKQRRIKLGFTQGDVGLAMGKLYGNDFSQTTISRFEALNLSFKNMCKLKPLLEKWLNDAE [E2S]: the abundance fitness is -0.057 ± 0.031.
Regarding LEEFEQFAKTFKQRRIKLGFTQGDVGLAMGKLYGNDFSQTTISRFEALNLSFKNMCKLKPLLEKWLNDAE [L4F], the abundance fitness is -0.483 ± 0.16.
As to EEELEQFAKTFKQRRIKLGFTQGDVGLAMGKLYGNDFSQTTISRFEALNLSFKNMCKLKPLLEKWLNDAE [L1E], the abundance fitness was -0.124 ± 0.11.
For the variant IEELEQFAKTFKQRRIKLGFTQGDVGLAMGKLYGNDFSQTTISRFEALNLSFKNMCKLKPLLEKWLNDAE [L1I], the abundance fitness is -0.003 ± 0.17.
Take YEELEQFAKTFKQRRIKLGFTQGDVGLAMGKLYGNDFSQTTISRFEALNLSFKNMCKLKPLLEKWLNDAE [L1Y]: the abundance fitness amounted to 0.13 ± 0.15.
In the case of CEELEQFAKTFKQRRIKLGFTQGDVGLAMGKLYGNDFSQTTISRFEALNLSFKNMCKLKPLLEKWLNDAE [L1C], the abundance fitness was -0.065 ± 0.34.
For WEELEQFAKTFKQRRIKLGFTQGDVGLAMGKLYGNDFSQTTISRFEALNLSFKNMCKLKPLLEKWLNDAE [L1W], the abundance fitness is -0.02 ± 0.051.
As for FEELEQFAKTFKQRRIKLGFTQGDVGLAMGKLYGNDFSQTTISRFEALNLSFKNMCKLKPLLEKWLNDAE [L1F], the abundance fitness was 0.007 ± 0.044.
Take AEELEQFAKTFKQRRIKLGFTQGDVGLAMGKLYGNDFSQTTISRFEALNLSFKNMCKLKPLLEKWLNDAE [L1A]: the abundance fitness was -0.201 ± 0.22.
Take REELEQFAKTFKQRRIKLGFTQGDVGLAMGKLYGNDFSQTTISRFEALNLSFKNMCKLKPLLEKWLNDAE [L1R]: the abundance fitness worked out at 0.142 ± 0.12.
As for SEELEQFAKTFKQRRIKLGFTQGDVGLAMGKLYGNDFSQTTISRFEALNLSFKNMCKLKPLLEKWLNDAE [L1S], the abundance fitness was -0.055 ± 0.28.
Same read-out and setting: the result for NEELEQFAKTFKQRRIKLGFTQGDVGLAMGKLYGNDFSQTTISRFEALNLSFKNMCKLKPLLEKWLNDAE [L1N] reads -0.074 ± 0.096; that for VEELEQFAKTFKQRRIKLGFTQGDVGLAMGKLYGNDFSQTTISRFEALNLSFKNMCKLKPLLEKWLNDAE [L1V], -0.026 ± 0.058.
Same read-out and setting: then KEELEQFAKTFKQRRIKLGFTQGDVGLAMGKLYGNDFSQTTISRFEALNLSFKNMCKLKPLLEKWLNDAE [L1K], with 0.001 ± 0.11; and DEELEQFAKTFKQRRIKLGFTQGDVGLAMGKLYGNDFSQTTISRFEALNLSFKNMCKLKPLLEKWLNDAE [L1D], with -0.145 ± 0.15.
As to MEELEQFAKTFKQRRIKLGFTQGDVGLAMGKLYGNDFSQTTISRFEALNLSFKNMCKLKPLLEKWLNDAE [L1M], the abundance fitness worked out at 0.073 ± 0.06.
